Data published in patent US9073974B2, “RGD-containing cyclic peptides” (The Regents of the University of California, priority 2009, dated 2015).
Bridge positions count the residues as written; N and C are the ends. Square brackets hold non-standard residues; d marks the D form. Ends that are not written are not given here. Peptide text beside a SMILES is read from it. dPen = CC(C)(S)[C@@H](N)C(=O)O; Agp = N=C(N)NC[C@H](N)C(=O)O; βAla = NCCC(=O)O; Sar = CNCC(=O)O

What was measured:
[1] = target: αvβ3 integrin (Homo sapiens, UniProt P05106+P06756); assay: Inhibition of biotinylated LXW7 binding to αvβ3-K562 cells (flow cytometry); set-up: expressed in transfected cells; host or cells: K562 (gift of Dr. Yoshikazu Takada, UC Davis); details: LXW9-92: inhibiting the binding of biotinylated LXW7 against αvβ3-K562 cells
Protocol: The apparent IC50 were calculated using Graph Prism software (≦www.graphpad.com≧).
The samples were analyzed with Coulter XL-MCL flow cytometry. The histogram and mean fluorescence intensity (MFI) were determined. The apparent Kd, IC50 were calculated using Graph Prism software (≦www.graphpad.com≧).

[2] = target: T1, αvβ3 integrin (human, UniProt P06756 31-1048; P05106 27-788); assay: flow cytometry, competition with biotinylated LXW7 on αvβ3-K562 cells; ++ = IC50 1-10 µM
T1 construct: whole, on cells; Same entry used for αvβ3-K562, U-87 MG and A375M cells; also called αvβ3-K562; αvβ3 transfected K562 cells
T1 sequence (P06756 31-1048, chain 1 of 2): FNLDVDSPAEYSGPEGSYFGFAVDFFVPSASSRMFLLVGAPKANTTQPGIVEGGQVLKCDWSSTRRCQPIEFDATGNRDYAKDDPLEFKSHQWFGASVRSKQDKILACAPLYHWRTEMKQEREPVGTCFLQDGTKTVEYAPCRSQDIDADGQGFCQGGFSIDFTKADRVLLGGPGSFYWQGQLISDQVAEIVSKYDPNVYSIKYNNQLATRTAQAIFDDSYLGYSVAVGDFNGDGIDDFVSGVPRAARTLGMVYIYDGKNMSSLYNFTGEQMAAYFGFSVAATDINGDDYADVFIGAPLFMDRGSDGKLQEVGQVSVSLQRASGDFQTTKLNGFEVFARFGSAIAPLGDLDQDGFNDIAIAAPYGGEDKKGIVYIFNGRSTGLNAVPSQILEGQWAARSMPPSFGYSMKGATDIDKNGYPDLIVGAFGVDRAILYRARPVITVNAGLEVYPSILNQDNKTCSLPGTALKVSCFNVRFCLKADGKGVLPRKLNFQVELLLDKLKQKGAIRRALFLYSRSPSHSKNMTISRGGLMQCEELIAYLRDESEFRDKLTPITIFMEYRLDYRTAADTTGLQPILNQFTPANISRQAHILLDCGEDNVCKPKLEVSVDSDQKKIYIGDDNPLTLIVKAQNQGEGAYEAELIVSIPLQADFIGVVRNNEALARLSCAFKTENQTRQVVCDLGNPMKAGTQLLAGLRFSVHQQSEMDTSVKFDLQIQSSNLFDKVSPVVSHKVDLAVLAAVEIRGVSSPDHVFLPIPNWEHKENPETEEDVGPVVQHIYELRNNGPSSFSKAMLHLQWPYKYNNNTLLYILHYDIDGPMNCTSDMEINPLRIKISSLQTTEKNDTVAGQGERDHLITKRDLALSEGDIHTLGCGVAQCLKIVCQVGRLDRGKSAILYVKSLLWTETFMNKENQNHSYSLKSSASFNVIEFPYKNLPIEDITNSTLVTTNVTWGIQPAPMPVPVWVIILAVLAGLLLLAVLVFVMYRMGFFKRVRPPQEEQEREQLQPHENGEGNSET
T1 sequence (P05106 27-788, chain 2 of 2): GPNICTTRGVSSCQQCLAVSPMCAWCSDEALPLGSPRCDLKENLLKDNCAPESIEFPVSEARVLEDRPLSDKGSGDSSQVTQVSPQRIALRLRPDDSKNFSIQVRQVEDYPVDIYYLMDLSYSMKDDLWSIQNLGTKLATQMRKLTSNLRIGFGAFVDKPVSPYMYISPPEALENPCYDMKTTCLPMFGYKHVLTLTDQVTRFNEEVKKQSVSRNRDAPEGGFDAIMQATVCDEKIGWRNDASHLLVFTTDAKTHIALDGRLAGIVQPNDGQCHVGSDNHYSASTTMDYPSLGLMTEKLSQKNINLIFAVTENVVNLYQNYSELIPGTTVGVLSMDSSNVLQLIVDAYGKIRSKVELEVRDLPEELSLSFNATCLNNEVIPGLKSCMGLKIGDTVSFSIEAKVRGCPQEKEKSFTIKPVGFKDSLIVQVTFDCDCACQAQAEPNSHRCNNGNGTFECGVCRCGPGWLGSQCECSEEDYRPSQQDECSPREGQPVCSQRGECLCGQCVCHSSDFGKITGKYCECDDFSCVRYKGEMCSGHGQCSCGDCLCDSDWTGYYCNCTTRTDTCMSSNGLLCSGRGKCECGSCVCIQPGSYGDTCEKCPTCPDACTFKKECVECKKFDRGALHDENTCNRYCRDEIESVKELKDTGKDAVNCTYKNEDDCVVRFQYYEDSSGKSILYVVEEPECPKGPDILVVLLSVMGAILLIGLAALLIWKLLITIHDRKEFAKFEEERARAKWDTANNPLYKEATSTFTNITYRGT

Sequence of αvβ3 integrin (Homo sapiens, UniProt P05106+P06756) (P06756 31-889 limits assumed): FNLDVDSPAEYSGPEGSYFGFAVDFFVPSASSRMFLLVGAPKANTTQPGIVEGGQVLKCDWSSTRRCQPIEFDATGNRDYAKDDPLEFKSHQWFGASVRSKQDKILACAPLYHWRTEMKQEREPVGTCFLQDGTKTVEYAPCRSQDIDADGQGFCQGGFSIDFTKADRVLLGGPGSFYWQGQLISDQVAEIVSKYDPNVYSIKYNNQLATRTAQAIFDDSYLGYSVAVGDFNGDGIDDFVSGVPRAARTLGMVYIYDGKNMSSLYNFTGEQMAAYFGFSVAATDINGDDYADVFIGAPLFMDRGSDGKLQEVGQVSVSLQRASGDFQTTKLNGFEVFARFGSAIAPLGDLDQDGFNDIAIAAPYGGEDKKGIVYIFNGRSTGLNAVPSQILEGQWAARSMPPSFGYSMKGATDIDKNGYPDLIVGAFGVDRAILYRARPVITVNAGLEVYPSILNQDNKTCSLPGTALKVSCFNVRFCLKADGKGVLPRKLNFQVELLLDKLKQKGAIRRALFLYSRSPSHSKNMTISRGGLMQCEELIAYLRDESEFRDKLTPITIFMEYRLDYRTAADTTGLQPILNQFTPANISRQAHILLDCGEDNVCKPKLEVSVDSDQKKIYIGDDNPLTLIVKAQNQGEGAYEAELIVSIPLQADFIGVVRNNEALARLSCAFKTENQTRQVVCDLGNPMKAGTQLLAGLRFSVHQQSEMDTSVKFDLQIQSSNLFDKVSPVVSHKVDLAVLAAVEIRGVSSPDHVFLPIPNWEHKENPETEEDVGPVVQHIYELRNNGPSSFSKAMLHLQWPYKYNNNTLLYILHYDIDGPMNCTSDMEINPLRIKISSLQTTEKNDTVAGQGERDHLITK
Sequence of αvβ3 integrin (Homo sapiens, UniProt P05106+P06756) (P06756 891-1048 partner limits assumed): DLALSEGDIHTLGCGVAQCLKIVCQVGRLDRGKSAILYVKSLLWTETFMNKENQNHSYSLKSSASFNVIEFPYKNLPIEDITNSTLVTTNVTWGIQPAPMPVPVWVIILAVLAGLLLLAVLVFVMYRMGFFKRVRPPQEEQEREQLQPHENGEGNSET
Sequence of αvβ3 integrin (Homo sapiens, UniProt P05106+P06756) (P05106 27-788): as the sequence (P05106 27-788, chain 2 of 2) above

**Q.** N=C(N)NCCC[C@@H]1NC(=O)CNC(=O)[C@H](N)CSSC[C@H](C(N)=O)NC(=O)[C@@H](Cc2c[nH]c3ccccc23)NC(=O)[C@@H](CC(=O)O)NC(=O)[C@H](CC(=O)O)NC(=O)CNC1=O [LXW68, cGRGDdwc] (H-[dC]GRGD[dD][dW][dC]-NH2; disulfide 1-8) was tested. Which IC50 ([1]; class symbols) did it give?
**A.** Its IC50 is < 1 µM.

**Q.** For CC(C)[C@H]1NC(=O)[C@@H](CC(=O)O)NC(=O)[C@H](CC(=O)O)NC(=O)CNC(=O)[C@H](CCCNC(=N)N)NC(=O)CCNC(=O)[C@H](N)CSSC[C@H](C(N)=O)NC1=O [LXW15, c-β-alanine-RGDdvc] (H-[dC][βAla]RGD[dD][dV][dC]-NH2; disulfide 1-8), which IC50 ([1]; class symbols) is on record?
**A.** The IC50 was 1 to 10 µM.

**Q.** With CC(C)[C@H]1NC(=O)[C@@H](CC(=O)O)NC(=O)[C@H](CCC(=O)O)NC(=O)CNC(=O)[C@H](CNC(=N)N)NC(=O)CNC(=O)[C@H](N)CSSC[C@H](C(N)=O)NC1=O [LXW59, cG-Agp-GEdvc] (H-[dC]G[Agp]GE[dD][dV][dC]-NH2; disulfide 1-8) as the molecule, how does the IC50 ([1]; LXW7 as internal reference) read?
**A.** The IC50 was > 20 µM.

B1: LXW15 (peptide)
peptide: [dC][βAla]RGD[dD][dV][dC]-NH2
modifications: disulfide 1-8; N-terminus assumed
SMILES: CC(C)[C@H]1NC(=O)[C@@H](CC(=O)O)NC(=O)[C@H](CC(=O)O)NC(=O)CNC(=O)[C@H](CCCNC(=N)N)NC(=O)CCNC(=O)[C@H](N)CSSC[C@H](C(N)=O)NC1=O
**Q.** For B1, which IC50 [2] is on record?
**A.** The IC50 was 1 to 10 µM.

B2: LXW10 (peptide)
peptide: [dC]GRGD[dD][dV]C-NH2
modifications: disulfide 1-8; N-terminus assumed
SMILES: CC(C)[C@H]1NC(=O)[C@@H](CC(=O)O)NC(=O)[C@H](CC(=O)O)NC(=O)CNC(=O)[C@H](CCCNC(=N)N)NC(=O)CNC(=O)[C@H](N)CSSC[C@@H](C(N)=O)NC1=O
**Q.** How did the IC50 [2] turn out when B2 was run?
**A.** Its IC50 is 1 to 10 µM.

B3: LXW9 (peptide)
peptide: CGRGD[dD][dV][dC]-NH2
modifications: disulfide 1-8; N-terminus assumed
SMILES: CC(C)[C@H]1NC(=O)[C@@H](CC(=O)O)NC(=O)[C@H](CC(=O)O)NC(=O)CNC(=O)[C@H](CCCNC(=N)N)NC(=O)CNC(=O)[C@@H](N)CSSC[C@H](C(N)=O)NC1=O
**Q.** For B3, which IC50 [2] is on record?
**A.** Its IC50 is 1 to 10 µM.

B4: LXW20 (peptide)
peptide: [dPen]GRGD[dD][dV][dC]-NH2
modifications: disulfide 1-8; N-terminus assumed
SMILES: CC(C)[C@H]1NC(=O)[C@@H](CC(=O)O)NC(=O)[C@H](CC(=O)O)NC(=O)CNC(=O)[C@H](CCCNC(=N)N)NC(=O)CNC(=O)[C@H](N)C(C)(C)SSC[C@H](C(N)=O)NC1=O
**Q.** For B4, which IC50 [2] is on record?
**A.** Its IC50 is 1 to 10 µM.

B5: LXW19 (peptide)
peptide: [dPen]GRGD[dD][dV][dPen]-NH2
modifications: disulfide 1-8; N-terminus assumed
SMILES: CC(C)[C@H]1NC(=O)[C@@H](CC(=O)O)NC(=O)[C@H](CC(=O)O)NC(=O)CNC(=O)[C@H](CCCNC(=N)N)NC(=O)CNC(=O)[C@H](N)C(C)(C)SSC(C)(C)[C@H](C(N)=O)NC1=O
**Q.** How did the IC50 [2] turn out when B5 was run?
**A.** The IC50 was 1 to 10 µM.

B6: LXW14 (peptide)
peptide: [dC][Sar]RGD[dD][dV][dC]-NH2
modifications: disulfide 1-8; N-terminus assumed
SMILES: CC(C)[C@H]1NC(=O)[C@@H](CC(=O)O)NC(=O)[C@H](CC(=O)O)NC(=O)CNC(=O)[C@H](CCCNC(=N)N)NC(=O)CN(C)C(=O)[C@H](N)CSSC[C@H](C(N)=O)NC1=O
**Q.** B6 was tested. Which IC50 [2] did it give?
**A.** Its IC50 is 1 to 10 µM.

B7: LXW13 (peptide)
peptide: [dC][dA]RGD[dD][dV][dC]-NH2
modifications: disulfide 1-8; N-terminus assumed
SMILES: CC(C)[C@H]1NC(=O)[C@@H](CC(=O)O)NC(=O)[C@H](CC(=O)O)NC(=O)CNC(=O)[C@H](CCCNC(=N)N)NC(=O)[C@@H](C)NC(=O)[C@H](N)CSSC[C@H](C(N)=O)NC1=O
**Q.** How did the IC50 [2] turn out when B7 was run?
**A.** The IC50 was 1 to 10 µM.
